According to PMC6829862:

Target: mCherry–Gβ1γ9 dimer (UniProt P62873)
Assay: FRET or BRET; FLIM-FRET in living transiently transfected HEK 293 cells at 37 °C; donor Citrine in Gα, acceptor mCherry on Gβ1 with the appropriate Gγ; efficiency E = 1 − τda/τd from the short lifetime component τ1 (donor alone 2.7 ± 0.1 ns), analysed only at the plasma membrane; GppNHp added to the culture did not change the signal

Sequence of Citrine–Gαi3 (P08754 whole entry): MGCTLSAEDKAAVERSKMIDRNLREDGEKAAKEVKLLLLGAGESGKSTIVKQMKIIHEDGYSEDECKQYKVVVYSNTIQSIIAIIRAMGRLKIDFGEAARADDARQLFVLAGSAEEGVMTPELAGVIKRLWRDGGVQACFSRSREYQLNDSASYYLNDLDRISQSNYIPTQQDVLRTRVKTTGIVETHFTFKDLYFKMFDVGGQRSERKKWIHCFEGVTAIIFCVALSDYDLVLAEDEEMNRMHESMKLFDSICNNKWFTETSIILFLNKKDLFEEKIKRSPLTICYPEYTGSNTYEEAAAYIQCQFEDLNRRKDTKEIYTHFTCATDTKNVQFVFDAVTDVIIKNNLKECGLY

FRET efficiency, lower than that of m3 with m4 by: 5%
Substance: Citrine–Gαi3 (from UniProt P08754 1-354) (natural protein)
